The record followed here is paper PMC8826748 (Nature, 2021).

The series deals with the molecule itself. Put plainly: cryo-EM structure.

B1: near-full-length human calcium-sensing receptor (CaSR, residues 20-894), Flag-tagged (receptor)
chain: AAAYGPDQRAQKKGDIILGGLFPIHFGVAAKDQDLKSRPESVECIRYNFRGFRWLQAMIFAIEEINSSPALLPNLTLGYRIFDTCNTVSKALEATLSFVAQNKIDSLNLDEFCNCSEHIPSTIAVVGATGSGVSTAVANLLGLFYIPQVSYASSSRLLSNKNQFKSFLRTIPNDEHQATAMADIIEYFRWNWVGTIAADDDYGRPGIEKFREEAEERDICIDFSELISQYSDEEEIQHVVEVIQNSTAKVIVVFSSGPDLEPLIKEIVRRNITGKIWLASEAWASSSLIAMPQYFHVVGGTIGFALKAGQIPGFREFLKKVHPRKSVHNGFAKEFWEETFNCHLQEGAKGPLPVDTFLRGHEESGDRFSNSSTAFRPLCTGDENISSVETPYIDYTHLRISYNVYLAVYSIAHALQDIYTCLPGRGLFTNGSCADIKKVEAWQVLKHLRHLNFTNNMGEQVTFDECGDLVGNYSIINWHLSPEDGSIVFKEVGYYNVYAKKGERLFINEEKILWSGFSREVPFSNCSRDCLAGTRKGIIEGEPTCCFECVECPDGEYSDETDASACNKCPDDFWSNENHTSCIAKEIEFLSWTEPFGIALTLFAVLGIFLTAFVLGVFIKFRNTPIVKATNRELSYLLLFSLLCCFSSSLFFIGEPQDWTCRLRQPAFGISFVLCISCILVKTNRVLLVFEAKIPTSFHRKWWGLNLQFLLVFLCTFMQIVICVIWLYTAPPSSYRNQELEDEIIFITCHEGSLMALGFLIGYTCLLAAICFFFAFKSRKLPENFNEAKFITFSMLIFFIVWISFIPAYASTYGKFVSAVEVIAILAASFGLLACIFFNKIYIILFKPSRNTIEEVRCSTAAHAFKVAARATLRRSNV
Regarding B1, the binding result is reported as “binds”.
